Consider 80 sequences from the supplement of paper PMC10724198.

± gives the standard deviation of the averaged measurements.
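Further: PSI is a weighted mean of sequencing reads over stability bins, variants kept only with over 10 reads, mCherry proximal and sfGFP distal, peptide attached via GGGS linker.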

The data set has as its system Saccharomyces cerevisiae. The data set is described as follows: protein stability index of tFT-peptide fusion (C-terminal peptide) (PSI (0-1 scale)); higher = more stable (slower turnover). Particulars: genetic background: wild type; temperature: 30 C.
The sequence SWECRGMGVCGG registered a protein stability index of 0.721 ± 0.02.
SWFYTQSEKTLS displayed a protein stability index of 0.7798 ± 0.005.
In turn, SWGHTGTLRNDI gave a protein stability index of 0.747 ± 0.035.
In the case of SWGLSVSSCFVW, the protein stability index worked out at 0.578 ± 0.0066.
Regarding SWICSTRSYQRE, the protein stability index was found to be 0.702 ± 0.044.
For SWMDRGGSYSGI, the protein stability index is 0.684 ± 0.12.
Take SWTCSPLKSFHS: the protein stability index came out at 0.734 ± 0.049.
Sequence SWVELCSQEVVI came in with a protein stability index of 0.603 ± 0.01.
SWVVSLGFAIGL showed a protein stability index of 0.693 ± 0.055.
Turning to SWYAGGRRWIVV, the protein stability index is 0.608 ± 0.022.
Regarding SYGSLFCSHLDG, the protein stability index turned out to be 0.6828 ± 0.0014.
SYGWSQGPLSCW yielded a protein stability index of 0.767 ± 0.01.
As to SYTIPPSTYLPS, the protein stability index came out at 0.704 ± 0.043.
In turn, SYVYETERNEST had a protein stability index of 0.715 ± 0.019.
Sequence TACPPSTPSTAF yielded a protein stability index of 0.689 ± 0.033.
As to TAGPHPLSLPPP, the protein stability index came out at 0.709 ± 0.033.
In turn, TALFRLRRPRLR had a protein stability index of 0.801 ± 0.021.
On to TAPRERFGKDPR, for which the protein stability index worked out at 0.649 ± 0.056.
TARAGRTASAPR: the protein stability index turned out to be 0.7084 ± 0.0025.
For TARVPARLTHAS, the protein stability index was 0.683 ± 0.029.
TAYRGCSDRNAG displayed a protein stability index of 0.603 ± 0.042.
On to TCRGRLCVCLFC, for which the protein stability index came to 0.505 ± 0.015.
In the case of TDPLGDDSSESE, the protein stability index is 0.672 ± 0.048.
On to TEHRVGEKEPWH, for which the protein stability index came out at 0.681 ± 0.018.
With TEKQSGRINTAI, the protein stability index came to 0.653 ± 0.034.
For TERPMAVESRAW the value was 0.686 ± 0.012.
On to TEVSDVSWSEVW, for which the protein stability index came out at 0.696 ± 0.025.
On to TFDNEYKRSRKV, for which the protein stability index came out at 0.678 ± 0.033.
As for TFFGEDVGVVVD, the protein stability index turned out to be 0.69681 ± 0.00058.
Regarding TFHTSSSPAHLP, the protein stability index was 0.663 ± 0.038.
On to TFSVNLGAASAK, for which the protein stability index was determined as 0.662 ± 0.042.
The sequence TGGKGNKNKIKE gave a protein stability index of 0.692 ± 0.031.
In turn, TGLMAPEGGGQA registered a protein stability index of 0.719 ± 0.076.
TGRGVFCMSIHM gave a protein stability index of 0.643 ± 0.045.
Turning to TGRQQTCRIIIE, the protein stability index was found to be 0.6873 ± 0.00092.
For the sequence TGRRLVLGDRCM, the protein stability index was found to be 0.72 ± 0.011.
In the case of TGSRISHSPLYP, the protein stability index worked out at 0.671 ± 0.02.
For TGTPGAVRRGGA the value was 0.727 ± 0.1; for TGVGRLGYRFVV, 0.588 ± 0.0064; for TGWSRTTVGFAT, 0.711 ± 0.046.
For THMSPLPTSERW the value was 0.678 ± 0.085; for THPPPPPPACSV, 0.632 ± 0.037.
For THRNEKQGTVTY the value was 0.651 ± 0.016; for THSLSCPPRNPP, 0.647 ± 0.07.
In turn, THVDLGVLVSPE returned a protein stability index of 0.6698 ± 0.0017.
THVKVNNQARGR: the protein stability index was found to be 0.722 ± 0.014.
Sequence TIATASWILRRL gave a protein stability index of 0.624 ± 0.0045.
The sequence TIRHKALTRKSR showed a protein stability index of 0.713 ± 0.012.
The sequence TKIENYKRKRAK displayed a protein stability index of 0.708 ± 0.1.
For TKIKKKTQEGSR the value was 0.698 ± 0.029; for TKKRKRKKKGNK, 0.715 ± 0.05.
In the case of TKQIKKNKHKRA, the protein stability index amounted to 0.727 ± 0.12.
The sequence TLAPSKHGSNRT had a protein stability index of 0.666 ± 0.049.
Sequence TLCCLFPIPSSS showed a protein stability index of 0.699 ± 0.08.
For TLCFSFPVPGFL, the protein stability index amounted to 0.723 ± 0.1.
In turn, TLCTSPWGVVAV registered a protein stability index of 0.511 ± 0.024.
For TLQLFPRIPSFQ, the protein stability index turned out to be 0.707 ± 0.0019.
In turn, TLRLPLHLLRPT showed a protein stability index of 0.642 ± 0.021.
Turning to TLRPPPPPAFPP, the protein stability index is 0.719 ± 0.084.
TLSFPFRPLRLA came in with a protein stability index of 0.48 ± 0.033.
TLSYSPPCSPRH: the protein stability index was found to be 0.742 ± 0.03.
Regarding TLVPAYRCEWCA, the protein stability index amounted to 0.736 ± 0.046.
Regarding TLYEVHQSENSR, the protein stability index was 0.666 ± 0.016.
TMLPQGFSGNLH had a protein stability index of 0.6891 ± 0.0025.
The sequence TMQDSNKSQGCA yielded a protein stability index of 0.706 ± 0.019.
TMSPPSTSGGMG came in with a protein stability index of 0.6855 ± 0.0042.
Sequence TNMTRWRIRVRD had a protein stability index of 0.676 ± 0.053.
Sequence TNNTKRDKKRIQ yielded a protein stability index of 0.703 ± 0.16.
In turn, TPHNQPKPTPPC registered a protein stability index of 0.698 ± 0.032.
On to TPHRVGRAAATR, for which the protein stability index was found to be 0.675 ± 0.02.
For TPKAMHPNPNTL the value was 0.6458 ± 0.0024.
TPLLRRHSFSRN gave a protein stability index of 0.779 ± 0.021.
TPLPLPPPRPSP: the protein stability index is 0.685 ± 0.0031.
In the case of TPLPSLPRPSAP, the protein stability index is 0.736 ± 0.016.
TPPLHSPFLFPP displayed a protein stability index of 0.671 ± 0.049.
TPPPPLSCPPPS showed a protein stability index of 0.487 ± 0.035.
For TPPPPLVPPLPP the value was 0.578 ± 0.017.
TPPPTPSLPTRP: the protein stability index was 0.677 ± 0.057.
As to TPPTHPPPLPPL, the protein stability index came out at 0.752 ± 0.11.
For TPRSCTLPTPPP the value was 0.606 ± 0.051.
